Measurements as given in patent publication US11123408B2, “Compositions and methods for treating nonsteroidal anti-inflammatory drug (NSAID) associated coagulopathy, thrombocytopenia, glanzmann's thrombasthenia, and/or thrombosis” (YALE UNIVERSITY, priority 2011, dated 2021).

Experiments:
[1] = Ap4A hydrolysis by NPP enzymes (linked malachite green assay, absorbance change at 259 nm, HPLC); assay type: biochemical
Method: (§1) NPP4 nucleotide substrates were identified by directly detecting the free phosphate (Pi) product using malachite green (ADP substrate) or by a linked hydrolysis assay with alkaline phosphatase combined with malachite green (lipid substrates and nucleotide substrates without terminal P1) to measure released Pi. 50 μM substrate P1 equivalents (e.g. 25 μM ADP) were treated with 50 nM NPP4 for 1 hr 37 min (lipids) or 3 hr 15 min (all other substrates). For substrates without terminal phosphates, 10 units of calf intestinal alkaline phosphatase (M0290S, 10,000 units/mL, New England Biolabs, Ipswich, Mass.) was added for a final reaction volume of 50 μL. 100 μL of malachite green (BIOMOL GREEN™, Enzo Life Sciences, Plymouth Meeting, Pa.) was added to quench the reactions. The amount of phosphate released was measured by absorbance at 620 nm by a Biotek Synergy Mx plate reader (Winooski, Vt.) in 96-well plates (3679, Corning Inc., Corning, N.Y.) and compared against a phosphate standard curve.
(§2) The kinetics of the steady state Ap3A/Ap4A cleavage by NPP4 was measured from time courses of absorbance change at 259 nm using a UV spectrophotometer with a 0.1 cm optical path length cuvette or a stopped-flow device with a 0.2 cm optical path length cell. The enzymology reactions in 50 mM Tris pH 8.0, 140 mM NaCl, 5 mM KCl, 1 mM MgCl2 and 1 mM CaCl2 were started by addition of 1 μM NPP4 to varying concentrations of Ap3A/Ap4A (up to 800 μM) solution (UV spectrophotometer) or by rapid mixing of NPP4 and Ap3A/Ap4A (stopped-flow). The substrate concentrations higher than 800 μM have absorption too high to be measured by a UV spectrophotometer and stopped-flow, and were therefore measured by HPLC. […] Therefore, the rate of a product production or enzyme turnover measured by the absorption change assay can be calculated by the rate of absorption change
(§3) [formula] according to the following formula;
[formula] where Δl is optical path length. The following absorption coefficients were used: Ap3A: 25.75 mM^−1 cm^−1. Ap4A: 25.4 mM^−1 cm^−1. […]
The HPLC protocol used to measure Ap3A/Ap4A cleavage by NPP4 and for product identification is modified from that of Stocchi et al. (1985, Anal Biochem 146:118-24). The reactions containing varying concentrations of Ap3A/Ap4A in the same buffer as in the absorbance change assay were started by addition of 0.2-1 μM NPP4 and quenched at various time points by equal volume of 3 M formic acid, or 0.5 N KOH and re-acidified by glacial acetic acid to pH 6. The quenched reaction solution was diluted systematically and loaded a HPLC system (Waters, Milford Mass.) and substrates and products were monitored by UV absorbance at 254 or 259 nm. […] The products and substrate were quantified according to the integration of their correspondent peaks and the formula: […]

[2] = test system: platelets of a patient donor with a mild platelet storage pool disorder; experiment: LTA in platelet rich plasma of a patient donor with a mild platelet storage pool disorder; assay type: cell-based, human; details: 50 nM NPP4; 2.5 μM ADP; without NPP4 approximately 40%
Method: Platelet aggregation was determined by measuring the change in light transmittance of stirred PRP over time after addition of various agonists. Prior to each experiment the aggregometer was standardized to reflect 100% and 0% light transmittance with PPP and PRP, respectively, from the donor whose platelets were used in each specific experiment. 500 μL PRP was added to cuvettes containing a magnetic stir bar and allowed to pre-warm to 37° C. in the aggregometer wells for 3 minutes prior to initiating aggregation reactions which were then conducted at 37° C. Aggregation reactions were initiated by direct addition of agonists and/or enzymes to warmed, stirred PRP, and were monitored for an increase in light transmittance for 10 minutes. The increase in light transmittance is directly proportional to the amount of aggregation and is amplified and digitized into a computer (HP Compaq, Hewlett-Packard, Palo Alto, Calif.) with the AGGRO/LINK8 for Windows software (Chrono-Log Corporation, Havertown, Pa.) to generate aggregation curves. […] The platelet aggregometry experiments for all concentrations of MRS 2395 (including the 0 μM point) were conducted with the plasma adjusted to a final concentration of 10% DMSO to solubilize the inhibitor.
NPP4 rescues platelets exposed to NSAIDs. […]

[3] = Ap3A hydrolysis by NPP enzymes (linked malachite green assay, absorbance change at 259 nm, HPLC); assay type: biochemical
Method: as §1, §2, §3
[formula] where Δl is optical path length. The following absorption coefficients were used: Ap3A: 25.75 mM^−1 cm^−1. Ap4A: 25.4 mM^−1 cm^−1. AMP, ADP, and ATP: 15.4 mM^−1 cm^−1. ADP Receptor Inhibitor Assay for NPP4 Inhibition
The HPLC protocol used to measure Ap3A/Ap4A cleavage by NPP4 and for product identification is modified from that of Stocchi et al. (1985, Anal Biochem 146:118-24). The reactions containing varying concentrations of Ap3A/Ap4A in the same buffer as in the absorbance change assay were started by addition of 0.2-1 μM NPP4 and quenched at various time points by equal volume of 3 M formic acid, or 0.5 N KOH and re-acidified by glacial acetic acid to pH 6. The quenched reaction solution was diluted systematically and loaded a HPLC system (Waters, Milford Mass.) and substrates and products were monitored by UV absorbance at 254 or 259 nm. Substrates and products were separated on a C18, 5 μm 250×4.6 mm HPLC column (Higgins Analytical, Mountain View, Calif.), using 15 mM ammonium acetate pH 6.0 solution, with a 0% to 10% (or 20%) methanol gradient. The products and substrate were quantified according to the integration of their correspondent peaks and the formula:
[formula] where [substrate]0 is the initial substrate concentration. The extinction coefficients of Ap3A, Ap4A, AMP, ADP and ATP used in the formula were the same as those used in absorption change assay. If monitoring at 254 nm, substrate and product standards run on the same day as the reactions were used to convert integrated product/substrate peak areas to concentrations. […]

- Ap4A cleavage (qualitative) ([1]; linked alkaline phosphatase / malachite green assay): detected cleavage
- Ap3A cleavage / hydrolysis (qualitative) ([3]; linked assay or steady state enzymatic studies): detected cleavage
B1: NPP4: soluble recombinant extracellular domain of human NPP4 (NCBI AAH18054.1, residues 1-407 of SEQ ID NO:1), expressed in insect cells (protein, listed as Homo sapiens)
chain: MKLLVILLFSGLITGFRSDSSSSLPPKLLLVSFDGFRADYLKNYEFPHLQNFIKEGVLVEHVKNVFITKTFPNHYSIVTGLYEESHGIVANSMYDAVTKKHFSDSNDKDPFWWNEAVPIWVTNQLQENRSSAAAMWPGTDVPIHDTISSYFMNYNSSVSFEERLNNITMWLNNSNPPVTFATLYWEEPDASGHKYGPEDKENMSRVLKKIDDLIGDLVQRLKMLGLWENLNVIITSDHGMTQCSQDRLINLDSCIDHSYYTLIDLSPVAAILPKINRTEVYNKLKNCSPHMNVYLKEDIPNRFYYQHNDRIQPIILVADEGWTIVLNESSQKLGDHGYDNSLPSMHPFLAAHGPAFHKGYKHSTINIVDIYPMMCHILGLKPHPNNGTFGHTKCLLVDQWCINLPEA
- maximum catalytic turnover rate (kcat) for Ap4A ([1]; substrate Ap4A): ~1 s^−l
- kcat, Ap4A Hydrolysis by NPP4 ([1]; substrate Ap4A, steady state): 0.78 s^−1NPP4^−1
- Km ([1]; substrate Ap4A, steady state, read-out: KM, Ap4A Hydrolysis by NPP4): 210 µM
- maximum amplitude of aggregation [2]: approximately 65%
- maximum catalytic turnover rate (kcat) for Ap3A ([3]; substrate Ap3A): ~4 s⁻¹
- kcat, Ap3A Hydrolysis by NPP4 ([3]; substrate Ap3A, steady state): 4.2 s^−1NPP4^−1
- Km ([3]; substrate Ap3A, steady state, read-out: KM, Ap3A Hydrolysis by NPP4): 843 µM
